For assay [1], the target named is T1, rat IL-21R expressed on cells (rat).
T1 construct: whole, on cells; Transiently transfected CHO-PA-Dukx cells
Description: cell ELISA: CHO cells transiently expressing the receptor, antibody in conditioned medium, HRP anti-human IgG, A450. How it is done: A subset of binding proteins was tested for binding to rat, cynomolgus monkey, human IL-21R, or human IL-2R-γ common subunit expressed transiently on the surfaces of CHO-PA-Dukx cells. Cells were transfected 48 hr prior to the assay. On the day of the assay, cells were washed gently 5× in PBS containing 0.9 mM CaCl₂ and 0.45 mM MgCl₂ (PBS/CaMg) on an automated plate washer (Titertek, Huntsville, Ala.), and blocked for 1 hr at RT in PBS/CaMg/5% nonfat dry milk. Conditioned media from transiently expressed anti-IL-21R IgGs were serially diluted in blocking buffer and added to the cells in the blocked plates for 1 hr at RT. Cells were washed 5× with PBS/CaMg and then incubated with horseradish peroxidase-conjugated anti-human IgG for 1 hr at RT. Cells were then washed 10× in PBS/CaMg and all of the wash buffer was removed. Cells were incubated with 100 μl TMB until the color reaction reached saturation, stopped with 100 μl of 0.18 M H₂SO₄, and read at A450 on a Perkin Elmer ENVISION™ plate reader.
(ELISA stands for enzyme-linked immunosorbent assay.)

Assay [2] addresses murine IL-21R expressed on cells (murine, UniProt Q9JHX3 20-529). In words: cell-based or functional assay.
Assay [3] has as its target T2, human IL-21R expressed on cells (human, UniProt Q9HBE5 20-538). Description: cell-based or functional assay.
The target of assay [4] is T1, rat IL-21R expressed on cells. Description: cell ELISA on transfected CHO cells, 13 nM IgG.
Assay [5] has as its target T3, human gamma common chain expressed on CHO cells (human, UniProt P31785 23-369).
T3 construct: whole, on cells; Control protein; also called human IL-2R-γ common subunit; human gamma (γ) common chain
T3 sequence (looked up): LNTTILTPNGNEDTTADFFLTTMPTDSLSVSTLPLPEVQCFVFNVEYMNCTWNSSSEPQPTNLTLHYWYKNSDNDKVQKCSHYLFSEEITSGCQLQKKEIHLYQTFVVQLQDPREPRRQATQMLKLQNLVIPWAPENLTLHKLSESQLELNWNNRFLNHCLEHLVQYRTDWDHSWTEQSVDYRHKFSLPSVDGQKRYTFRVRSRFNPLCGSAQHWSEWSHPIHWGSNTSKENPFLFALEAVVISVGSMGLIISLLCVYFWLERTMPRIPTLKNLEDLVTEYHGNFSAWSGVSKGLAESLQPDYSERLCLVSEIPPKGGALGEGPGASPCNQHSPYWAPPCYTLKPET
In words: cell ELISA on transfected CHO cells, 13 nM IgG.

The target of assay [6] is T2, human IL-21R expressed on cells. In words: cell ELISA on transfected CHO cells, 13 nM IgG.
In assay [7] the target is T4, cynomolgus monkey IL-21R expressed on CHO cells (cynomolgus monkey).
T4 construct: whole, on cells
Description: cell ELISA on transfected CHO cells, 13 nM IgG.

T2 sequence (Q9HBE5 20-538 limits assumed): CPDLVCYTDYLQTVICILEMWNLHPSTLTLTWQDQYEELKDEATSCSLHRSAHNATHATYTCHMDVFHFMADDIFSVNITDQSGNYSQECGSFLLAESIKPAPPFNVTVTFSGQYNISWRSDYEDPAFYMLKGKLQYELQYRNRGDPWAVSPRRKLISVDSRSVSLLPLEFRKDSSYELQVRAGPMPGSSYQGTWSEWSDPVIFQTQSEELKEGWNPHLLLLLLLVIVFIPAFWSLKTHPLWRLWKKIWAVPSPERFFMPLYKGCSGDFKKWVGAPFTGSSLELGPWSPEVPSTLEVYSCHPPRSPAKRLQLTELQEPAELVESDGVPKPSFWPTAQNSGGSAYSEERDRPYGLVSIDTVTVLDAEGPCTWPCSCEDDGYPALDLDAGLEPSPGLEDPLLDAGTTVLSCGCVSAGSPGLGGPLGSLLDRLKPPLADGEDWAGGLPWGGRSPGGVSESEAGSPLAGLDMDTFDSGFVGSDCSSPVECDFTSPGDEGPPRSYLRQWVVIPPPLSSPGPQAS
murine IL-21R expressed on cells, sequence (Q9JHX3 20-529 limits assumed): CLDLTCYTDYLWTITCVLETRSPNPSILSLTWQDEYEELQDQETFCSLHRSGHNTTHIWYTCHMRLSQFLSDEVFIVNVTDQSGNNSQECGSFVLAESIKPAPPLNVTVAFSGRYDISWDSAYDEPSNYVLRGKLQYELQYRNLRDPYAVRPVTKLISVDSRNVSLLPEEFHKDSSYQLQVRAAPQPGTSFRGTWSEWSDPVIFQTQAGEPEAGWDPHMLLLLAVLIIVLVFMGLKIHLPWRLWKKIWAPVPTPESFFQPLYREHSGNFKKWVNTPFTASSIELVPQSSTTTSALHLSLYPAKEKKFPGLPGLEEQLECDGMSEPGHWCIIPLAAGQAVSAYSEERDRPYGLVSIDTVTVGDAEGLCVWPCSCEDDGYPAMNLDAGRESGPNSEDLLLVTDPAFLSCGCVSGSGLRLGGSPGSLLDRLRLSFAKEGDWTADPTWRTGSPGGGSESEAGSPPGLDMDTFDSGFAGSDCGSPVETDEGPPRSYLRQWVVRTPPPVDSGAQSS

B1: AbG (antibody, human IgG1, V domains shown)
VH: QVQLQESGPGLVKPSETLSLTCAVSGYSISSGYYWGWIRQPPGKGLEWIGSISHTGNTYYNPPLKSRVTISVDTSKNQFSLKLSSVTAADTAVYYCARGGGISRPEYWGQGTLVTVSS
VL: SSELTQDPAVSVALGQTVRITCQGDSLRTYYASWYQQKPGQAPVLVIYGKHKRPSGIPDRFSGSSSGNTASLTITGAQAEDEADYYCVTRSVKGNPHVLFGGGTQLTVL
notes: Full-length human IgG1 / human lambda, transient, conditioned medium; Framework limits derived; also called VHP/VL18
For orientation: EC50 (read off the curve) means the concentration needed to bring the measured effect to its halfway point. As for B1, the “EC50 (read off the curve)” value in assay [1] was around 0.8 nM. In assay [2], the “Murine IL-21R-BaF3 Proliferation IC50” value amounted to 0.07 nM. Also, in assay [3], the “Human IL-21R-BaF3 Proliferation IC50” value was 0.77 nM. Also, the “Human IL-21R-TF1 Proliferation IC50” value in assay [3] is 3.84 nM. The “A450 at 13 nM Ab in cell ELISA” value was 1.11 A450 in assay [4], 0.108 A450 in assay [5], 1.35 A450 in assay [6] and 1.3 A450 in assay [7].

For the origin of these results see patent US20090298167A1 (Pfizer, published 2009).
